Laboratory results: IntAct's records for PubMed 23851574

B1: Large envelope protein (Hepatitis B virus genotype D subtype adw (isolate United Kingdom/adyw/1979)), P03139-1 (parent)
chain: MGQNLSTSNPLGFFPDHQLDPAFRANTNNPDWDFNPNKDTWPDANKVGAGAFGLGFTPPHGGLLGWSPQAQGIMQTLPANPPPASTNRQSGRQPTPLSPPLRTTHPQAMHWNSTTFHQTLQDPRVRGLYFPAGGSSSGTVNPVPTTTSPISSIFSRIGDPALNMENITSGFLGPLLVLQAGFFLLTRILTIPQSLDSWWTSLNFLGGTTVCLGQNSQSPISNHSPTSCPPTCPGYRWMCLRRFIIFLFILLLCLIFLLVLLDYQGMLPVCPLIPGSSTTSTGSCRTCTTPAQGISMYPSCCCTKPSDGNCTCIPIPSSWAFGKFLWEWASARFSWLSLLVPFVQWFVGLSPIVWLSVIWMMWYWGPSLYSILSPFLPLLPIFFCLWAYI
partner: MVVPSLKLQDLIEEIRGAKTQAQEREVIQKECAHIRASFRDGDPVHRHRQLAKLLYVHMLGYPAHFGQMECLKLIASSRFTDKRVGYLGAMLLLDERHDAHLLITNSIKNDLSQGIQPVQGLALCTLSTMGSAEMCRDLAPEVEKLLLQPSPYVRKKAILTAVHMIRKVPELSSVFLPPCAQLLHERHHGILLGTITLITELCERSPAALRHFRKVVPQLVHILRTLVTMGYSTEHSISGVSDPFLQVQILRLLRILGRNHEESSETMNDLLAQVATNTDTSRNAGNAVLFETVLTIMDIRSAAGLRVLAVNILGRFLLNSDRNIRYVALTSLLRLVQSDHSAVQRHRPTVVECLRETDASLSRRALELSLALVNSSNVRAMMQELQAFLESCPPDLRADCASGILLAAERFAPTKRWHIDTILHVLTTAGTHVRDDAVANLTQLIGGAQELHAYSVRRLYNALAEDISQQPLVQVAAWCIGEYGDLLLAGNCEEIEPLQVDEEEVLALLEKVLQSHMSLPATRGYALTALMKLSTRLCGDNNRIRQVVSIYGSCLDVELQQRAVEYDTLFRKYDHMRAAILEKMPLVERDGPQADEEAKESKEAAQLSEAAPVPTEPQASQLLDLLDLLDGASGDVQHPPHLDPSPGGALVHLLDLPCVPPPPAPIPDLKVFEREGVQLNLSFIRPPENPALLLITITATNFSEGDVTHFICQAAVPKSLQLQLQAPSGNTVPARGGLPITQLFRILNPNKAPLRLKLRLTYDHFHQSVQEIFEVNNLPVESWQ
B2: AP-1 complex subunit gamma-like 2 (Homo sapiens), O75843 (parent)
chain: B1 partner

Variants of: B1
Conditions: with ap1g2_human AP1G2, O75843

| Variant | effect of a mutation on the interaction |
| --- | --- |
| D33A | decreasing interaction strength |
| F34A | decreasing interaction strength |
| D31A | decreasing interaction strength |
| W32A | decreasing interaction strength |

Variants of: B2
Conditions: with S

| Variant | effect of a mutation on the interaction |
| --- | --- |
| K719Q | decreasing interaction strength |
| R760A | decreasing interaction strength |
| S720A | decreasing interaction strength |
| P754A | decreasing interaction strength |
| A716G | decreasing interaction strength |
| R756A | decreasing interaction strength |
| R756Q | decreasing interaction strength |
